Test results as given in the Human Domainome abundance scans (Beltran et al. 2025).

B1: POU domain, class 3, transcription factor 1, residues 247 to 324; numbered along this chain, Q03052 (parent)
chain: EDAPSSDDLEQFAKQFKQRRIKLGFTQADVGLALGTLYGNVFSQTTICRFEALQLSFKNMCKLKPLLNKWLEETDSSS
B2: Cytoplasmic polyadenylation element-binding protein 2, residues 513 to 575; numbered along this chain, Q7Z5Q1 (parent)
chain: KRVEVKPYVLDDQMCDECQGARCGGKFAPFFCANVTCLQYYCEFCWANIHSRAGREFHKPLVK

Variants of: B1
Assay: abundance fitness (aPCA) (normalised: wild type 0, dead -1); higher = more abundant; growth selection in yeast, the domain comes from the species named
Conditions: Homo sapiens

Abundance fitness, by site and new letter:
K64: M -0.042 | F -0.562 | T -0.401 | D -0.653 | L -0.511 | Y -0.564 | H -0.126 | A -0.199 | N -0.334 | E -0.564 | P -0.643 | Q -0.009 | G -0.911 | R 0.002 | C -0.38 | V -0.164 | I -0.814 | S -0.405
K62: D -0.268 | Y 0.035 | C -0.224 | M -0.075 | T -0.058 | N 0.06 | F -0.278 | G -0.365 | H 0.03 | R -0.15 | W -0.449 | Q -0.184 | L -0.119 | P -0.882 | E -0.095
L63: D -0.297 | R -0.766 | K -0.887 | G -0.643 | F -0.148 | E -0.436 | Y -0.368 | P -0.769 | N -0.117 | S -0.791 | M -0.11 | T -0.582 | V -0.315 | C -0.736 | W -0.605
K69: R -0.058 | W -0.671 | Q -0.02 | E -0.342 | M -0.144 | A -0.161 | N -0.249 | P -0.662 | V -0.559 | I 0.102 | Y -0.159 | T -0.251 | C -0.361 | G -0.119 | H -0.254 | D -0.19
D75: K -0.207 | E 0.109 | M -0.4 | Y 0.151 | T -0.274 | A -0.015 | H 0.395 | Q 0.165 | I -0.038 | W -0.262 | S 0.138 | C 0.089 | R -0.077 | P 0.178 | V -0.115 | L -0.214
S78: V 0.021 | C 0.08 | A -0.023 | D 0.212 | P -0.019 | T 0.087 | N 0.256 | Q -0.158 | R -0.032 | G 0.153 | W -0.189 | F -0.199 | K 0.164 | M -0.256 | E -0.045 | Y -0.008 | L 0.091
L71: P -1.1 | A -0.369 | D -0.711 | R -0.569 | W -0.584 | V -0.356 | K -0.677 | Q -0.504 | C -0.712 | F -0.82 | E -0.63 | M 0.03 | S -0.706 | I -0.019 | H -0.402 | N -0.341 | G -0.851 | T -0.988
E73: M -0.012 | A -0.038 | L -0.018 | P -0.378 | S -0.126 | D 0.267 | F -0.105 | G -0.196 | Q 0.041 | I -0.351 | V -0.128 | Y -0.197 | T -0.034 | R -0.081 | W -0.137 | N -0.154 | H -0.03
S76: M 0.012 | L -0.112 | Q 0.106 | T 0.103 | W -0.495 | G 0.062 | A -0.096 | H -0.196 | C -0.341 | V -0.015 | R 0.058 | K 0.12 | I -0.426 | P 0.099 | D 0.089
W70: G -0.687 | Y -0.296 | L -0.549 | H -0.374 | T -0.595 | P -0.93 | R -0.679 | F 0.086 | K -0.756 | C -0.762 | D -0.485 | S -0.348 | I -0.707 | M -0.756 | A -0.689 | V -0.58 | Q -0.881 | E -0.753
S77: W -0.19 | L -0.098 | N -0.141 | Y 0.044 | G 0.159 | I -0.113 | Q 0.106 | K 0.096 | D 0.036 | P 0.071 | V 0.045 | C -0.165 | H 0.054 | F -0.243 | M -0.029 | A 0.065 | R -0.022 | E 0.002 | T 0.061
E72: G -0.368 | T -0.148 | M 0.037 | Q -0.143 | A -0.193 | Y -0.19 | D 0.004 | R -0.079 | H -0.018 | F -0.493 | N -0.152 | S -0.212 | P -0.736 | V -0.1 | L -0.024 | I -0.245 | K -0.049 | C -0.247
L67: E -0.951 | W -0.81 | A -0.562 | D -0.167 | R -0.716 | C -0.427 | H -0.04 | Q -1.2 | F -0.698 | N -0.553 | P -0.613 | M -0.084 | S -0.829 | V -0.563 | I -0.321 | T -0.711
L66: Y 0.053 | E -0.936 | P -0.644 | G -0.78 | S -0.767 | I 0.035 | K -0.299 | D -0.822 | W -0.33 | R -0.504 | V -0.18 | A -0.226 | M 0.162 | F -0.031 | Q -0.4
N68: T 0.145 | V -0.008 | I -0.028 | L 0.038 | H 0.108 | K 0.007 | S 0.02 | M 0.042 | Q 0.011 | Y -0.162 | G -0.049 | D -0.071 | P -0.763 | W -0.118 | E 0.082 | F -0.175 | R -0.086 | A 0.029
M60: Y 0.109
T74: E -0.121 | N 0.278 | F 0.453 | I -0.479 | G -0.418 | K 0.04 | C -0.009 | R -0.009 | V 0.042 | S -0.141 | Q 0.089 | Y -0.156 | A 0.12 | M -0.062 | W -0.224 | H 0.231
C61: P -0.988 | V 0.045 | Q 0.017 | T -0.384 | S -0.212 | I -0.134 | Y -0.164 | F -0.538 | M -0.036 | D -0.96 | E -0.078 | K -0.043 | N -0.24 | H -0.357 | L -0.048 | A -0.001 | R -0.065 | W -0.148
P65: C -0.139 | G -0.167 | Y -0.158 | E -0.193 | S -0.179 | H -0.173 | V -0.113 | M -0.332 | A -0.241 | W -0.389 | K -0.156 | L -0.284 | F -0.175 | R -0.205 | Q -0.451 | N -0.266 | D -0.053 | T -0.246

Variants of: B2
Assay: as above
Conditions: Homo sapiens

Abundance fitness: each site, then its substitutions
G54: N 0.108
F57: S 0.129
G20: S -0.363 | A -0.501 | R -0.522
P29: Q 0.074
K6: N 0.006
K59: Q -0.076
D11: I 0.022
E17: T -0.22 | S -0.051
R52: M 0.064 | I 0.029
V3: I -0.041 | D 0.107
N48: D 0.007
G24: Q 0.066 | R -0.135
F31: V -0.622
Y8: Q 0.012
A53: R 0.055
K26: E -0.091
W46: F 0.027 | Y -0.154
L10: C -0.065
E4: N -0.15
E43: G -0.179
C23: V -0.328
V35: F -0.115
E56: M -0.154
